Results taken from patent US20060241289A1 (RSR, published 2006).

What was measured:
[1] = target: TSH receptor coated onto plastic tubes or ELISA plate wells (RSR Ltd) / detergent solubilised TSH receptor; experiment: Scatchard analysis, TSH receptors coated onto plastic tubes
[2] = target: T1, TSH receptor coated onto plastic tubes or ELISA plate wells (RSR Ltd) / detergent solubilised TSH receptor; experiment: Scatchard analysis, 125I-IgG on TSH receptor coated tubes
T1 construct: also called TSHR coated tubes; TSH receptor coated tubes
Procedure: Unlabelled IgG or Fab in 50 μL of assay buffer and 50 μL of ¹²⁵I-labelled hMAb IgG or Fab (30,000 cpm in assay buffer) were incubated for 2 hours at room temperature with gentle shaking, washed twice with 1 mL of assay buffer and counted in a gamma counter.

| Binder | Ka [1] [M⁻¹] | Ka [2] [M⁻¹] |
| --- | --- | --- |
| 9D33 (antibody, V domains shown, Mouse monoclonal IgG; also called 9D33 IgG; mouse monoclonal antibody to the TSHR (9D33)) VH: DVQIQQPGTELVKPGASVRLSCKASGYTFTTYWMHWVKQRPGQGLEWIGEIDPSDSYTNYNQKFKGKATLTVDKSSSTAYMHLSSLTSEDSAVYYCSRNYGSGYYFDYWGQGTTLTVSS VL: GVEMTQSPAIMSASPGEKVTMTCSASSSVSYMHWYQQKSGTSPKRWIYDTSKLASGVPARFSGSGSGTSYSLTISSMETEDAATYYCQQWSSNPWTFGGGTKLEIK | 2e+10 |  |
| hMAb TSHR1 IgG (antibody, V domains shown, also called human monoclonal TSH receptor autoantibody; TSMAb TSHR1 IgG) VH: QVQLVQSGAEVKKPGESLKISCRGSGYRFTSYWINWVRQLPGKGLEWMGRIDPTDSYTNYSPSFKGHVTVSADKSINTAYLQWSSLKASDTGMYYCARLEPGYSSTWSVNWGQGTLVTVSS VL: LTVLTQPPSVSGAPRQRVTISCSGNSSNIGNNAVNWYQQLPGKAPKLLIYYDDQLPSGVSDRFSGSRSGTSASLAIRGLQSEDEADYYCTSWDDSLDSQLFGGGTRLTVLG |  | 5e+10 |
